Measured values: US20160200782A1 (MOERAE MATRIX, published 2016)

T1: ZAP-70(h) (human, UniProt P43403 1-619, limits assumed)
T1 sequence (looked up): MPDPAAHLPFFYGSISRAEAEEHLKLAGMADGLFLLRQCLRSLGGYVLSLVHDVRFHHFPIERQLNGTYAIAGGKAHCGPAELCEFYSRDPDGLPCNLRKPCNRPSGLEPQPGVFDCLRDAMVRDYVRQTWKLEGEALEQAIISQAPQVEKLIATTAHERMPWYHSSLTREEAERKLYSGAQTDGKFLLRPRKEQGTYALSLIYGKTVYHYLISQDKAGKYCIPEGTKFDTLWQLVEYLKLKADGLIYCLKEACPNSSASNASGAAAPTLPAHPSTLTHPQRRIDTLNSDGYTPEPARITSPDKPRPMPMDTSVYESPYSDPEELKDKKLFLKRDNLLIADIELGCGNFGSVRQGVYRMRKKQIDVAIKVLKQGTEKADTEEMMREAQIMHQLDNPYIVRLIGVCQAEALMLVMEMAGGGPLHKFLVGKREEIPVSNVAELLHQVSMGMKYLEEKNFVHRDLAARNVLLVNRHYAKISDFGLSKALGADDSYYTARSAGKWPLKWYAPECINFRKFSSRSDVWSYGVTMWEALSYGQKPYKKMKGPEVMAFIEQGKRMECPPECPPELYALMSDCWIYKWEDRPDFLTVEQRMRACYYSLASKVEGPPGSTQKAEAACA

T2: MuSK(h) (human, UniProt O15146 517-869, limits assumed)
T2 sequence (looked up): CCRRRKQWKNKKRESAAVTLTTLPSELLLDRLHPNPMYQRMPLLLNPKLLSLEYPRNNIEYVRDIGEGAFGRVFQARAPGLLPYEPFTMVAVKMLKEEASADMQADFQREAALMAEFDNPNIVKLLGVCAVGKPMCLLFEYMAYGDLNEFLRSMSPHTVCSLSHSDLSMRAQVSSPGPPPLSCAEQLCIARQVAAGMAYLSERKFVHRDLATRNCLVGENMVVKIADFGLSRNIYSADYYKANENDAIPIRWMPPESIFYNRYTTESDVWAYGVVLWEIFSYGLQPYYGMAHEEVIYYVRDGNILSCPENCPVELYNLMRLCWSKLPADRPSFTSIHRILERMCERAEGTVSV

T3: Flt3(D835Y)(h) (human, UniProt P36888 564-993, limits assumed)
T3 sequence (looked up): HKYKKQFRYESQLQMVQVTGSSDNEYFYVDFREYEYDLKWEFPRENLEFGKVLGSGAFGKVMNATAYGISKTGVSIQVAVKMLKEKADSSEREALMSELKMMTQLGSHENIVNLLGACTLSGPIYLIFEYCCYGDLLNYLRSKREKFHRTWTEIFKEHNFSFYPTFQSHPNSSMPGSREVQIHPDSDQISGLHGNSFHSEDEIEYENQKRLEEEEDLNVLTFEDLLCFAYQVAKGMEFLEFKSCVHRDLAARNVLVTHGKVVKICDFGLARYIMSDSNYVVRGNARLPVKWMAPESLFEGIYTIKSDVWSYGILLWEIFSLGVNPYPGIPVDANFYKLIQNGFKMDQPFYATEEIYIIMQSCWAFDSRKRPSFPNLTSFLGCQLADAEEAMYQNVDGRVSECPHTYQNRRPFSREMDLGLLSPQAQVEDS

T4: Ret(V804M)(h) (human, UniProt P07949 658-1114, limits assumed)
T4 sequence (looked up): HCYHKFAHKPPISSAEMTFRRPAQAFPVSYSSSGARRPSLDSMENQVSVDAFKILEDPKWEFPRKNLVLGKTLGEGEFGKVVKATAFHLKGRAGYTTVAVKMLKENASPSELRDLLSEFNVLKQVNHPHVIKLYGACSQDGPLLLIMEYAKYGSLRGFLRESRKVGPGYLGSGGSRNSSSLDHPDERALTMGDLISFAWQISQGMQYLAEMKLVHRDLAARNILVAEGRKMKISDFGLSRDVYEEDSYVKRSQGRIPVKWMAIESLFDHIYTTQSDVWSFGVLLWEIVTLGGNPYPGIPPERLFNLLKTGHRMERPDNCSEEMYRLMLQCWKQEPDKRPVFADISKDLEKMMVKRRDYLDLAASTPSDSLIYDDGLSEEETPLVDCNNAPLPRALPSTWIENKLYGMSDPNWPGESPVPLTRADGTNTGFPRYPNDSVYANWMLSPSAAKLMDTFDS

T5: CHK1(h) (human, UniProt O14757 1-476)
T5 sequence (looked up): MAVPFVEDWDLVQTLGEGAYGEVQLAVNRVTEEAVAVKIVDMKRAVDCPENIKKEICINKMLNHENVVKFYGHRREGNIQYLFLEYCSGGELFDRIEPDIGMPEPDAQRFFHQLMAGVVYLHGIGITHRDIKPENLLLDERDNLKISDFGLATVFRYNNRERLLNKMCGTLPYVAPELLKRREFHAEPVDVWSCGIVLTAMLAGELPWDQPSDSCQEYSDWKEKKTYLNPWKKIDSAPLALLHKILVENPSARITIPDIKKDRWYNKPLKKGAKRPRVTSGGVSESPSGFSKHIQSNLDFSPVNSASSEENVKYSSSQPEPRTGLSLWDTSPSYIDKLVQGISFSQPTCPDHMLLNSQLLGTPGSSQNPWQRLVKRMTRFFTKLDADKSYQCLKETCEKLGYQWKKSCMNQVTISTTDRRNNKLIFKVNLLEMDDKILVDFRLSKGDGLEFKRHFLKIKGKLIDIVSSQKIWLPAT


Legend:
Experiment in all cases: cell-based or functional assay
Ab1(Q252H)(h) = Ab1(Q252H)(h) (human, UniProt P00519 27-1130, limits assumed)
Ab1(Q252H)(h), sequence (P00519 27-1130 Q252H limits assumed): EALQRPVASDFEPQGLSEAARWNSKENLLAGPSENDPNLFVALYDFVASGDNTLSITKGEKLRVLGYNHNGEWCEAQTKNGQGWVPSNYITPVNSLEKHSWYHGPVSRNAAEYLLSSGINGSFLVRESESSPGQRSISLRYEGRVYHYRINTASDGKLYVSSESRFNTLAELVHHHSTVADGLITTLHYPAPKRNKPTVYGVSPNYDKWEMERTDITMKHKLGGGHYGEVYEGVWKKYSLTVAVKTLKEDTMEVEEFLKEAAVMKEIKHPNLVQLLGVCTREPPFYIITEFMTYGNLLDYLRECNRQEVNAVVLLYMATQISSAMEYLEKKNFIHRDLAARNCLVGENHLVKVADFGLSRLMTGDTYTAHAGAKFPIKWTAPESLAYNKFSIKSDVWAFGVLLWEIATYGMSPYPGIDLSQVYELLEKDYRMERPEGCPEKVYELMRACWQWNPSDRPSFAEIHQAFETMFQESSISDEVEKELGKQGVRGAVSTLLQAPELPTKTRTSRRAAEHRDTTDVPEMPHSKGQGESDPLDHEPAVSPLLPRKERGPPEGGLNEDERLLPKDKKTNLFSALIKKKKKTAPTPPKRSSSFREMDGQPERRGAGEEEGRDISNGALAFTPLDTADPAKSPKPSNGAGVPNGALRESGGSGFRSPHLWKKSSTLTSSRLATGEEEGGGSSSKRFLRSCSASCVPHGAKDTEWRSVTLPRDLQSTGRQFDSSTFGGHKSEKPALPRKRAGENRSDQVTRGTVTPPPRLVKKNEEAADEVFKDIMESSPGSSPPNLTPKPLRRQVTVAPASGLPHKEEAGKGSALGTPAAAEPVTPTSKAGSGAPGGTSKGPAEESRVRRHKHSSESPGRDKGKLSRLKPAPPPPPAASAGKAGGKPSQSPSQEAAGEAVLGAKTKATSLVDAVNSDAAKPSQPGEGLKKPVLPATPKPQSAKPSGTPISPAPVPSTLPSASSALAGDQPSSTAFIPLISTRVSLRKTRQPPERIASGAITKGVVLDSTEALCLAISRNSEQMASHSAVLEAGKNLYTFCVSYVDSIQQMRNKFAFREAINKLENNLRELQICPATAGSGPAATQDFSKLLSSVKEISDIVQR

EGFR(h) = EGFR(h) (human, UniProt P00533 696-1210, limits assumed)
ZAP-70(h) = target: T1, ZAP-70(h)
MuSK(h) = target: T2, MuSK(h)
Flt3(D835Y)(h) = target: T3, Flt3(D835Y)(h)
Ret(V804M)(h) = target: T4, Ret(V804M)(h)
MARK1(h) = MARK1(h) (human, UniProt Q9P0L2 1-795, limits assumed)
MARK1(h), sequence (Q9P0L2 whole entry): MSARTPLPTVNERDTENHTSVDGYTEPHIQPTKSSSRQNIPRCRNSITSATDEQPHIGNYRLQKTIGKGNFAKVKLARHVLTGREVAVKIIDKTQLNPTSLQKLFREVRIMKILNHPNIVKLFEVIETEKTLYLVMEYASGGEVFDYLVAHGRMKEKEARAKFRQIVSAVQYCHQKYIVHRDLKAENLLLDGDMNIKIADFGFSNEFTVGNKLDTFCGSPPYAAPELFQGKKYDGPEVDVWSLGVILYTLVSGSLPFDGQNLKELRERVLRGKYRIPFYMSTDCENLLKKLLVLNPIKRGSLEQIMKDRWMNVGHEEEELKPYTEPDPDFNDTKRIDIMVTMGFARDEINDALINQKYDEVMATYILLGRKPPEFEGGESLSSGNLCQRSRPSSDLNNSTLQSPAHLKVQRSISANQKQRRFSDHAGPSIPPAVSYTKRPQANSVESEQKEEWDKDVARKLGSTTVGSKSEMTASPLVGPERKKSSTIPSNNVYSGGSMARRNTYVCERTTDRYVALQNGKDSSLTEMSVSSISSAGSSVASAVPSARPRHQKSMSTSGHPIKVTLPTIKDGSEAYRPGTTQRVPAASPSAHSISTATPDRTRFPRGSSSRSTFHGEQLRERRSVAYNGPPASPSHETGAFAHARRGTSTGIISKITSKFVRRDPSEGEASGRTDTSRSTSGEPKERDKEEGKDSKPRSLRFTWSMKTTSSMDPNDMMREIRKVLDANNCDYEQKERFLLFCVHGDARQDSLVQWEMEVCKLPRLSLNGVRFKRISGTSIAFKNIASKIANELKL

MST3(h) = MST3(h) (human, UniProt Q9Y6E0 1-443, limits assumed)
MST3(h), sequence (Q9Y6E0 whole entry): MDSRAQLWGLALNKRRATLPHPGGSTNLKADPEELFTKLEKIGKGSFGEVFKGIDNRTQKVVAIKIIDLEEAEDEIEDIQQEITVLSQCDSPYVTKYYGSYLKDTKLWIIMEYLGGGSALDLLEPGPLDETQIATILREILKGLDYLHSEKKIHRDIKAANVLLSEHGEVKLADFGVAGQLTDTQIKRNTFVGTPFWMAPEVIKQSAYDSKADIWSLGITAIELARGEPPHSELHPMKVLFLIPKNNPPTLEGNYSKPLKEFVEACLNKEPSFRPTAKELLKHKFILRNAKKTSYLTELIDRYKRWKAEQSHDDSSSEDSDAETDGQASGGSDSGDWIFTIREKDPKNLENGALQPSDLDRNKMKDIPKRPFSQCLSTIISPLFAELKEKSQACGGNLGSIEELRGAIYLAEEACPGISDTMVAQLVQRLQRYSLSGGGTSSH

CHK2(R145W)(h) = CHK2(R145W)(h) (human, UniProt O96017 5-543, limits assumed)
CHK2(R145W)(h), sequence (O96017 5-543 R145W limits assumed): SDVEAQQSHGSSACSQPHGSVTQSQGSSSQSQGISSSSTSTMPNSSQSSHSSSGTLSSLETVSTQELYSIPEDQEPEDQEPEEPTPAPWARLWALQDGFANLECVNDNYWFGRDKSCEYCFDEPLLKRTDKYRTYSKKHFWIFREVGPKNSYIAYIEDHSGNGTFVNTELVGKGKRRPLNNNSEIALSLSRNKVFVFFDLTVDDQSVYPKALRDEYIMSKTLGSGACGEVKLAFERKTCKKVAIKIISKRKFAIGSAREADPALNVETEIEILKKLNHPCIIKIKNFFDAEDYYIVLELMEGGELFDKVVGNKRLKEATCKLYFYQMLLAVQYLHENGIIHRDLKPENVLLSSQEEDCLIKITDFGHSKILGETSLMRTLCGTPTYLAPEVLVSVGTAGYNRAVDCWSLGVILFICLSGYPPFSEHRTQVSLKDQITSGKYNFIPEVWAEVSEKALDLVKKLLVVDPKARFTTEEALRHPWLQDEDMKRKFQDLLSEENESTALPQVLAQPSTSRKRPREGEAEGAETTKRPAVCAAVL

CHK1(h) = target: T5, CHK1(h)
Fyn(h) = Fyn(h) (human, UniProt P06241 1-537, limits assumed)
Fyn(h), sequence (P06241 whole entry): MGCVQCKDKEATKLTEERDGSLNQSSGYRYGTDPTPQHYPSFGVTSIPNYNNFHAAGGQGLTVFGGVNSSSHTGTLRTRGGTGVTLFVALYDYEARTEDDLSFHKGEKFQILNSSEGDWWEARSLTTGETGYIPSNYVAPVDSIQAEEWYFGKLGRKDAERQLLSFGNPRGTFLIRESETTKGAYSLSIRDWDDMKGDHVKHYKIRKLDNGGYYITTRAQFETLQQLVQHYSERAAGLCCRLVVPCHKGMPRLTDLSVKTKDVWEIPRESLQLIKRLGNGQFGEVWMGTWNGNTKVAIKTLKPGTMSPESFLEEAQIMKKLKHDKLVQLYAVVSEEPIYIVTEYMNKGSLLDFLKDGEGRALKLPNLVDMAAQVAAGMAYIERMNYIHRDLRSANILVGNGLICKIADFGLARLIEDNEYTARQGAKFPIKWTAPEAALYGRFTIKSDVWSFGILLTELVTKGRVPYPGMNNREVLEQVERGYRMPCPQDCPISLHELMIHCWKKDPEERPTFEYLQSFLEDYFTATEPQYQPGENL

PAK3(h) = PAK3(h) (human, UniProt O75914 1-559, limits assumed)
PAK3(h), sequence (O75914 whole entry): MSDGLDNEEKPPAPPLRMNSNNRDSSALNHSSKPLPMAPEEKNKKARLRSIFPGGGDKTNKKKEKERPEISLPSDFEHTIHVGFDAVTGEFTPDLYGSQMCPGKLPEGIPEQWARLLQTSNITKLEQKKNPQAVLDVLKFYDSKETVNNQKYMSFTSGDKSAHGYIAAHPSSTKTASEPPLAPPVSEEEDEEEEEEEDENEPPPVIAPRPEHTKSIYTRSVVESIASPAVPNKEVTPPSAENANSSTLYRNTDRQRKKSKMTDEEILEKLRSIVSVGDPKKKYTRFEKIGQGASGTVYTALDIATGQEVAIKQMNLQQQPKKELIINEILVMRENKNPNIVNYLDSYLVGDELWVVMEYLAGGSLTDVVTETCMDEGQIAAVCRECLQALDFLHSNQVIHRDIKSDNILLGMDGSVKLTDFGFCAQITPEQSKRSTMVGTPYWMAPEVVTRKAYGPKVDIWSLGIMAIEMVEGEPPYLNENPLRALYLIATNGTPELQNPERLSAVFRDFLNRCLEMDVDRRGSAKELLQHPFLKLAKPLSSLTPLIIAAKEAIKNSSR
Note: test concentration or dose not given here.

Row | % activity (Ab1(Q252H)(h)) | % activity (EGFR(h)) | % activity (ZAP-70(h)) | % activity (MuSK(h)) | % activity (Flt3(D835Y)(h)) | % activity (Ret(V804M)(h)) | % activity (MARK1(h)) | % activity (MST3(h)) | % activity (CHK2(R145W)(h)) | % activity (CHK1(h)) | % activity (Fyn(h)) | % activity (PAK3(h)) | Binder
1 | 98% | 16% | 33% | 93% | 71% | 87% | 120% | 36% | 31% | 87% | 54% | 121% | KAFAKLAARLYRKALARQLGVAA [MMI-0400]
2 | 82% | 21% | 75% | 93% | 80% | 95% | 132% | 45% | 33% | 91% | 74% | 140% | FAKLAARLYRKALARQLGVAA [MMI-0300]
